Experiment [1] concerns the target T1, human CEACAM6 expressed on Pan02/Pgp-KO/hCEACAM6 cells (human, UniProt P40199 35-320).
T1 construct: also called carcinoembryonic antigen-related cell adhesion molecule 6; CD66c
T1 sequence: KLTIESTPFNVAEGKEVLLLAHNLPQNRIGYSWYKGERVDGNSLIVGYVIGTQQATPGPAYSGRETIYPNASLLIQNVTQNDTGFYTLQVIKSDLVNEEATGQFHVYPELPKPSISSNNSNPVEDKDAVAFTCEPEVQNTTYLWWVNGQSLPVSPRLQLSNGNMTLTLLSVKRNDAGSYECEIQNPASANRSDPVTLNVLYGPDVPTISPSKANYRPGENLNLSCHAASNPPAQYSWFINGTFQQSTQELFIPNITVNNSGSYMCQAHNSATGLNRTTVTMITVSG
In words: flow cytometry sorting ([..] II) of Pan02 cells transfected with human CEACAM6. From the text:
The mouse pancreatic cancer cell line Pan02 (National Institutes of Health) was transfected with recombinant Cas9 protein (Alt-R S.p. HiFi Cas9 V3, Integrated DNA Technologies), and mouse Abcb1a and single guided RNA (Aft-R CRISPR sgRNA, Integrated DNA Technologies) for Abcb1b, using a NEPA21 Super Electroporator (Nepa Gene). The obtained cells were further transfected with human CEACAM6 using pLV[Exp]-Puro-EFS lentiviral vector (VectorBuilder) and MISSION Lentiviral Packaging Mix (Sigma-Aldrich). […] The established cells were designated as cell line Pan02/Pgp-KO/hCEACAM6, and were maintenance cultured in a 5% CO₂ incubator (37° C.) using RPMI (FujiFilm-Wako Pure Chemical Industries) containing 10% fetal bovine serum (FBS: SIGMA 173012) and penicillin/streptomycin (FujiFilm-Wako Pure Chemical Industries) (hereunder referred to simply as “culture medium”).

Experiment [2] concerns the target T2, human CEACAM6 extracellular domain-SEAP-His protein (human).
T2 chain: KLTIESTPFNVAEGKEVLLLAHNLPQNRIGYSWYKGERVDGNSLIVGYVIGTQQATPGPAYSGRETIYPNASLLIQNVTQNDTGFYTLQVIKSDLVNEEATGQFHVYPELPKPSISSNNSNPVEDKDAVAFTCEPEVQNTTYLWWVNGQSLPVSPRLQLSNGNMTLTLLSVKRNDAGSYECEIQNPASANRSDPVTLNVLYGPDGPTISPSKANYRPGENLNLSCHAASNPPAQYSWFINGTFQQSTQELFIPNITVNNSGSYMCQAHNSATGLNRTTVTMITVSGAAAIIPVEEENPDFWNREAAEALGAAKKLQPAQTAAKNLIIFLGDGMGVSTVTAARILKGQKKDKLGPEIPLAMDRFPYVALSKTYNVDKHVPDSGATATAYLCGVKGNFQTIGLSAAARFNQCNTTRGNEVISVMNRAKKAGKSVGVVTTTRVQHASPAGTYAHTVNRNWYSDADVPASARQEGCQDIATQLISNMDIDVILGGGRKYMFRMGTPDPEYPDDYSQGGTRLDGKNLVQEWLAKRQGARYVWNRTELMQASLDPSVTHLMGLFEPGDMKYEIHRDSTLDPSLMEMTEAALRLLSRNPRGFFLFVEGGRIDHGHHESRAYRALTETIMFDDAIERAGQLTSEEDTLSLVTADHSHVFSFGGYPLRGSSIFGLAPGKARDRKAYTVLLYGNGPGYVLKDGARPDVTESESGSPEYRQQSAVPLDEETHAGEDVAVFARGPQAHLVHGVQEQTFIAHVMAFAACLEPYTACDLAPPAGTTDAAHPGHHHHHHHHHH
In words: ELISA: FLAG-tagged scFv from E. coli supernatant captured on anti-FLAG antibody, 20 nM antigen, HRP-labeled anti-His antibody detection, absorbance at 450 nm. Here is the method: (§1) After the second panning procedure, a single colony from the concentrated phage-infected TG1 cells was transferred to culture medium on a 96-well plate. IPTG was added to induce expression of the FLAG-tagged scFv, and vibration culture was carried out overnight at 30° C. The TG1 cells were spinned down and the scFv-containing E. coli culture supernatant was used to pickup the wells that were reactive with human CEACAM6.
(§2) Reactivity with human CEACAM6 was evaluated by ELISA according to the following procedure, using either human CEACAM6 extracellular domain-SEAP-His protein or human CEACAM6 extracellular domain-MBP-His protein. The wells of a 96-well plate (Nunc) were coated with anti-FLAG antibody (Sigma). After incubation overnight at 4° C., the wells were blocked with 2% skim milk (BD) for 2 hours at room temperature. After rinsing 3 times with 0.02% Tween20/PBS (Nacalai Tesque, Inc.), human CEACAM6 extracellular domain-SEAP-His protein or human CEACAM6 extracellular domain-MBP-His protein (final concentration: 20 nM) and E. coli culture supernatant containing scFv were added to each well and incubation was continued for 2 hours at room temperature. […] An equivalent of stopping solution (1N H₂SO₄, FujiFilm Wako Pure) was added to each well, and the absorbance at 450 nm was read off using a microplate reader (Thermo Scientific). […]

In experiment [3] the target is human CEACAM6 extracellular domain-MBP-His protein (human). The description is as above. Here is the method:
as §1, §2

2 molecules from patent publication US20240148895A1 (EISAI R AND D MANAGEMENT, published 2024) can be followed below.

B1: antibody A (human anti-CEACAM6_#84.7 monoclonal antibody) (antibody, human IgG1, lambda, V domains shown)
VH: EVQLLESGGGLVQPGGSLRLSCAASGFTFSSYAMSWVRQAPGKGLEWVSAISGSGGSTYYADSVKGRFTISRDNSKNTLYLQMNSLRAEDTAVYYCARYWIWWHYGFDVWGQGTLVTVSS
VL: SSELTQDPAVSVALGQTVRITCQGDSLRSYYASWYQQKPGQAPVLVIYGKNNRPSGIPDRFSGSSSGNTASLTITGAQAEDEADYYCQSYYSSSHYVVFGGGTKLTVLG
notes: The heavy chain constant region is human IgG1/2m: IgG1 CH1 and hinge, IgG2 CH2 and CH3 with V234A and G237A (Eu numbering); The light chain constant region is human Ig lambda
On to B1, for which the binding result in experiment [1] is given as “binds”.

B2: human antibody fragment (scFv) specifically binding to human CEACAM6, from which antibody A was designed (scFv, V domains shown)
VH: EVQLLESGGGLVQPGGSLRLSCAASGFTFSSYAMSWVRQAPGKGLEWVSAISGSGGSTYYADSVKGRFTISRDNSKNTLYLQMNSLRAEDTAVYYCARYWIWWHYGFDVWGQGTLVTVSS
VL: SSELTQDPAVSVALGQTVRITCQGDSLRSYYASWYQQKPGQAPVLVIYGKNNRPSGIPDRFSGSSSGNTASLTITGAQAEDEADYYCQSYYSSSHYVVFGGGTKLTVL
notes: Tested as a single-chain FLAG-tagged scFv in E. coli culture supernatant; also called FLAG-tagged scFv
B2: the binding result in experiment [2] and in experiment [3] was “binds” throughout.
